Measurements from patent publication US20240287138A1 (Merck Sharp & Dohme, published 2024).
Values belong to the binder of their own block, whether it stands above or below them. Numbered stars: 1 amine (or outer) side, 2 acyl side, 3 side chain; on linkers, the order of the positions; unused ones are H or OH. Bridge positions count the residues as written; N and C are the ends. Square brackets hold non-standard residues; d marks the D form. * marks the point of attachment. RbOHPhe4CONH2 = (2S,3R)-2-amino-3-(4-carbamoylphenyl)-3-hydroxypropanoic acid, NC(=O)c1ccc([C@@H](O[*:3])[C@H](N[*:1])C(=O)[*:2])cc1; bhcLeu = (1R,3S)-3-aminocyclopentane-1-carboxylic acid, O=C([C@@H]1CC[C@H](N[*:1])C1)[*:2]; Trp(βS-Me,7-OMe) = COc1cccc2c([C@H](C)[C@H](N)C(=O)O)c[nH]c12; dPro(trans-4-NMe2) = CN(C)[C@@H]1CN[C@@H](C(=O)O)C1; Trp(7-CN) = N#Cc1cccc2c(C[C@H](N)C(=O)O)c[nH]c12; Biotin = O=C1N[C@H]2[C@H](CS[C@H]2CCCCC(=O)*)N1; Phe(4-COOH) = N[C@@H](Cc1ccc(C(=O)O)cc1)C(=O)O; Trp(7-aza) = N[C@@H](Cc1c[nH]c2ncccc12)C(=O)O; Pip(4-aza) = O=C(O)[C@@H]1CNCCN1; 4Pal = N[C@@H](Cc1ccncc1)C(=O)O; αMeS = C[C@](N)(CO)C(=O)O; Nle = CCCC[C@H](N)C(=O)O; AEA = NCCOCC(=O)O; Sar = CNCC(=O)O

What was measured:
[1] = biological target: T1, TNFR1 on THP-1 Lucia NF-κB reporter cells (UniProt P19438 30-455, limits assumed); assay: cell-based or functional assay
T1 sequence (looked up): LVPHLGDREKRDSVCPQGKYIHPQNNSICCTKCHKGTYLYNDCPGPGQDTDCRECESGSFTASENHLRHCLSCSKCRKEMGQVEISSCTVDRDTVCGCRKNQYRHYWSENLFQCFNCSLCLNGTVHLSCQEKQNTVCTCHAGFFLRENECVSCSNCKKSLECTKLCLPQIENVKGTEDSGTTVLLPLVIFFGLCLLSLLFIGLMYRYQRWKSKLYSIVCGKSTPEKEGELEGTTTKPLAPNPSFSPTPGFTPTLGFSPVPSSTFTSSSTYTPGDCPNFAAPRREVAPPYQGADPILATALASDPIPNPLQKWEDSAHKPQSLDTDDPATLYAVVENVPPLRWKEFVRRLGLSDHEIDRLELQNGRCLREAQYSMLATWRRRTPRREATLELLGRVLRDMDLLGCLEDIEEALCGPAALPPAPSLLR

[2] = biological target: T2, C-terminally 6His-tagged human soluble TNFR1 (sTNFR1, residues 1-211), purified from a Sf21 baculovirus … (human); assay: TR-FRET binding assay, probe peptide with sTNFR1-6His (0.25 nM)
T2 construct: ID NO; The text says 'residues 1-211'; also called sTNFR1-6His; ID NO; P1
T2 chain: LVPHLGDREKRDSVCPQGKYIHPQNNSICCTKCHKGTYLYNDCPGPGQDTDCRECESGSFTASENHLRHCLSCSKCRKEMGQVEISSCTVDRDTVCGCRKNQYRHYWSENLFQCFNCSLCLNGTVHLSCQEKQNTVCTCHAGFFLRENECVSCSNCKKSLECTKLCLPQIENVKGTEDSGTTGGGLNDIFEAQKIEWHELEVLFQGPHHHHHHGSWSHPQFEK

THP-1 IC50 [1]: 1.7 nM
B1: SEQ ID NO. 287 (Example No. 287) macrocyclic peptide (peptide)
peptide: cyclo([bhcLeu][Nle][4Pal][Pip(4-aza)][Trp(7-aza)][dPro(trans-4-NMe2)]N[Phe(4-COOH)][Trp(7-CN)][αMeS][Phe(4-COOH)][RbOHPhe4CONH2][Sar][Trp(βS-Me,7-OMe)])
SMILES: CCCC[C@@H]1NC(=O)[C@@H]2CC[C@@H](C2)NC(=O)[C@H]([C@@H](C)c2c[nH]c3c(OC)cccc23)NC(=O)CN(C)C(=O)[C@H]([C@H](O)c2ccc(C(N)=O)cc2)NC(=O)[C@H](Cc2ccc(C(=O)O)cc2)NC(=O)[C@](C)(CO)NC(=O)[C@H](Cc2c[nH]c3c(C#N)cccc23)NC(=O)[C@H](Cc2ccc(C(=O)O)cc2)NC(=O)[C@H](CC(N)=O)NC(=O)[C@H]2C[C@H](N(C)C)CN2C(=O)[C@H](Cc2c[nH]c3ncccc23)NC(=O)[C@@H]2CNCCN2C(=O)[C@H](Cc2ccncc2)NC1=O

Kd [2]: ~100 nM
B2: biotinylated peptide SEQ ID NO. 1 (TR-FRET probe): cyclo(ClAc-F-Y-S-W-Sar-N-Y-W-S-Y-Y-Sar-W-C)-G-Aea-K(N-Biotin)-NH2 (peptide)
peptide: {CH2CO}-FYSW[Sar]NYWSYY[Sar]WCG[AEA]K(Biotin)-NH2
modifications: thioether N-14
SMILES: CN1CC(=O)N[C@@H](CC(N)=O)C(=O)N[C@@H](Cc2ccc(O)cc2)C(=O)N[C@@H](Cc2c[nH]c3ccccc23)C(=O)N[C@@H](CO)C(=O)N[C@@H](Cc2ccc(O)cc2)C(=O)N[C@@H](Cc2ccc(O)cc2)C(=O)N(C)CC(=O)N[C@@H](Cc2c[nH]c3ccccc23)C(=O)N[C@H](C(=O)NCC(=O)NCCOCC(=O)N[C@@H](CCCCNC(=O)CCCC[C@@H]2SC[C@@H]3NC(=O)N[C@@H]32)C(N)=O)CSCC(=O)N[C@@H](Cc2ccccc2)C(=O)N[C@@H](Cc2ccc(O)cc2)C(=O)N[C@@H](CO)C(=O)N[C@@H](Cc2c[nH]c3ccccc23)C1=O
notes: Synthetic thioether macrocycle made by Procedure A, with a Gly-Aea spacer and Lys(biotin) on the carboxy group of the C-terminal cysteine; also called biotin-tagged B0372 peptide
